These results are taken from article PMC6349933.

Common to all, as to experiment: FRET or BRET; acceptor photobleaching FRET between ECFP and EYFP fusions in tobacco leaf epidermis; YFP bleached with a 514 nm laser; E = 100(A − B)/B
(Bioluminescence resonance energy transfer reports proximity on the nanometre scale.)

The target of one assay is EYFP-ROP11 (Arabidopsis) (UniProt O82481).
In assay [1] the target is EYFP-ROP11G17V (Arabidopsis) (UniProt O82481).
For assay [2], the target named is EYFP-ROP11T22N (Arabidopsis) (UniProt O82481).
Assay [3] addresses BDR1-ECFP (Arabidopsis thaliana).

BDR1-ECFP (Arabidopsis thaliana), sequence (main, as listed by the source): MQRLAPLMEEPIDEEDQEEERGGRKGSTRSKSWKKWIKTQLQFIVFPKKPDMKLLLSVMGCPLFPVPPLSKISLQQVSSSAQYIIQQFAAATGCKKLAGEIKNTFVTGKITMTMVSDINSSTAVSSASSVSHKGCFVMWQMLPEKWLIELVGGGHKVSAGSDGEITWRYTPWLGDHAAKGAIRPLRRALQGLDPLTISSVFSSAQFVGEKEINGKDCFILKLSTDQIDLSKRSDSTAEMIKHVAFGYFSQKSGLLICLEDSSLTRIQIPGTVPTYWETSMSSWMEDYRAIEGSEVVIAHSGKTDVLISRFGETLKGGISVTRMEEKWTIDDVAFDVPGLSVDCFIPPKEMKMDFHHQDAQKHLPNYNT

On to BDR1-ECFP (natural protein), for which the FRET efficiency in the assay with EYFP-ROP11 (Arabidopsis) was above 10%; in assay [1] it was above 10%; in assay [2] it was 0%.

Consider EYFP-WAL (natural protein), for which the FRET efficiency in assay [3] stood at 15%.
